Assay: specific activity of LFS
Format: biochemical
Conditions: rLFS used in Examples

B1: rLFS: recombinant lachrymatory factor synthase (E2-3) produced in E. coli, GST tag removed (protein, UniProt P59082 13-169, looked up)
Lachrymatory-factor synthase: DSANGARKWSGKVHALLPNTKPEQAWTLLKDFINLHKVMPSLSVCELVEGEANVVGCVRYVKGIMHPIEEEFWAKEKLVALDNKNMSYSYIFTECFTGYEDYTATMQIVEGPEHKGSRFDWSFQCKYIEGMTESAFTEILQHWATEIGQKIEEVCSA
Q: Which specific activity does the source give for B1 here?
A: 6.0×10^6 area/μg
